# Data: paper doi:10.1101/2022.09.01.506260 (bioRxiv, 2022)
# Square brackets hold non-standard residues; d marks the D form. pT = C[C@@H](OP(=O)(O)O)[C@H](N)C(=O)O; pS = N[C@@H](COP(=O)(O)O)C(=O)O
# B1: CrkII SH2 domain (CrkII^SH2) (domain or fragment)
# chain: DSEERSSWYWGRLSRQEAVALLQGQRHGVFLVRDSSTSPGDYVLSVSENSRVSHYIINSSGPRPPVPPSPAQPPPGVSPSRLRIGDQEFDSLPALLEFYKIHYLDTTTLIEPVSR
# B2: CrkII NSH3 domain (CrkII^NSH3) (domain or fragment)
# chain: AEYVRALFDFNGNDEEDLPFKKGDILRIRDKPEEQWWNAEDSEGKRGMIPVPYVEKYR
# B3: PEAK3^tandem peptide, non-phosphorylated (residues 54-74) (peptide)
# peptide: Ac-PLPPPLPKKILTRTQSLPTRR-NH2
# B4: PEAK2^IDR1 (N-terminally truncated PEAK2, residues 802-1406) (domain or fragment)
# chain: EDVSPSGPQQPPPLPQKKIVSRAASSPDGFFWTQGSPKPGTASPKLNLSHSETNVHDESHFSYSLSPGNRHHPVFSSSDPLEKAFKGSGHWLPAAGLAGNRGGCGSPGLQCKGAPSASSSQLSVSSQASTGSTQLQLHGLLSNISSKEGTYAKLGGLYTQSLARLVAKCEDLFMGGQKKELHFNENNWSLFKLTCNKPCCDSGDAIYYCATCSEDPGSTYAVKICKAPEPKTVSYCSPSVPVHFNIQQDCGHFVASVPSSMLSSPDAPKDPVPALPTHPPAQEQDCVVVITREVPHQTASDFVRDSAASHQAEPEAYERRVCFLLLQLCNGLEHLKEHGIIHRDLCLENLLLVHCTLQAGPGPAPAPAPAPAPAAAAPPCSSAAPPAGGTLSPAAGPASPEGPREKQLPRLIISNFLKAKQKPGGTPNLQQKKSQARLAPEIVSASQYRKFDEFQTGILIYELLHQPNPFEVRAQLRERDYRQEDLPPLPALSLYSPGLQQLAHLLLEADPIKRIRIGEAKRVLQCLLWGPRRELVQQPGTSEEALCGTLHNWIDMKRALMMMKFAEKAVDRRRGVELEDWLCCQYLASAEPGALLQSLKLLQLL
# modifications: phosphorylation of the tandem site 14-3-3 motif (RAASSP, first S of SS underlined) found by proteomic analysis
# B5: PEAK1^IDR1 (N-terminally truncated PEAK1, residues 1082-1746) (domain or fragment)
# chain: LPELEREDGKEDISDPMDPNPCSATYSNLGQSRAAMIPPKQPRQPKGAVDDAIAFGGKTDQEAPNASQPTPPPLPKKMIIRANTEPISKDLQKSMESSLCVMANPTYDIDPNWDASSAGSSISYELKGLDIESYDSLERPLRKERPVPSAANSISSLTTLSIKDRFSNSMESLSSRRGPSCRQGRGIQKPQRQALYRGLENREEVVGKIRSLHTDALKKLAVKCEDLFMAGQKDQLRFGVDSWSDFRLTSDKPCCEAGDAVYYTASYAKDPLNNYAVKICKSKAKESQQYYHSLAVRQSLAVHFNIQQDCGHFLAEVPNRLLPWEDPDDPEKDEDDMEETEEDAKGETDGKNPKPCSEAASSQKENQGVMSKKQRSHVVVITREVPCLTVADFVRDSLAQHGKSPDLYERQVCLLLLQLCSGLEHLKPYHVTHCDLRLENLLLVHYQPGGTAQGFGPAEPSPTSSYPTRLIVSNFSQAKQKSHLVDPEILRDQSRLAPEIITATQYKKCDEFQTGILIYEMLHLPNPFDENPELKEREYTRADLPRIPFRSPYSRGLQQLASCLLNPNPSERILISDAKGILQCLLWGPREDLFQTFTACPSLVQRNTLLQNWLDIKRTLLMIKFAEKSLDREGGISLEDWLCAQYLAFATTDSLSCIVKILQHR
# B6: full length recombinant PEAK3 (PEAK3^FL) from insect cells (natural protein)
# chain: MSSPEPPTEPPEPDNPTWSTQPTYSNLGQIRAHLLPSKACRLRTPGSLSTNPEPLPPPLPKKILTRTQSLPTRRTLHPSSIQVQPPRRPFLGSHSVDKSQAAVGPACLPAELTFGPADAPLGLSLRDLHSPEAVHTALAARQLQGLRTIYARLRARLMGGHPGPCHPGHSFRLLDSSPCAESGDALYYRVVRAHEDAWHILVAKVPKPGADVPHPWGLELQASLSPHFNLQGLCGLVPEGTLPGAPWRGAVALAAEVPERTVAQWLAEACTQPPEEFVWAVALLLLQLSAALKFLEAWGAALVELRPENLLLVAPRGCATTGPPRLLLTDFGRVCLQPPGPPGSPGPHAPQLGSLLRALLSLAAPSTTPLAAGLELLAAQLTRLRPSASRTRGALQALLWGPGPELRGRGAPLGPWLRALGPWLRVRRGLLVLRLAERAAGGEAPSLEDWLCCEYLAEATESSMGQALALLWD
# modifications: phosphoserine at 69 (pS69)
# B7: CrkII SH2-NSH3 construct lacking the CSH3 domain (CrkII^ΔCSH3) (domain or fragment)
# chain: MAGNFDSEERSSWYWGRLSRQEAVALLQGQRHGVFLVRDSSTSPGDYVLSVSENSRVSHYIINSSGPRPPVPPSPAQPPPGVSPSRLRIGDQEFDSLPALLEFYKIHYLDTTTLIEPVSRSRQGSGVILRQEEAEYVRALFDFNGNDEEDLPFKKGDILRIRDKPEEQWWNAEDSEGKRGMIPVPYVEKYRPASASVSALIGGNQEGSHPQPLGGPEPGPYAQPSVNT
# How the values were obtained:
# SEC [1] = molecular target: the molecule itself; assay: SEC
# human 14-3-3ε = molecular target: T1, human 14-3-3ε (human, UniProt P62258-1 1-255); assay: SPR
# T1 sequence: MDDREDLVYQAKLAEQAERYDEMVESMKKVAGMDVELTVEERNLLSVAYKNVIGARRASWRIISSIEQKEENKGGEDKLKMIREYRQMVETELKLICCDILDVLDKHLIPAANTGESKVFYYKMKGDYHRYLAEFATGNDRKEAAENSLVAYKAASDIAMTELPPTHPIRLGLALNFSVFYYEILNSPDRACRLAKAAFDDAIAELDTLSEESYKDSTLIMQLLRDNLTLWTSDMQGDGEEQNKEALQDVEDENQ
# [2] = molecular target: B3; assay: ITC
# [3] = molecular target: B2; assay: SPR
# SEC [4] = molecular target: the molecule itself; assay: SEC; remark: listed apart in the source
# SEC-MALS = molecular target: the molecule itself; assay: SEC-MALS
binder,measurement,setting,value
B1,stoichiometry N,SEC [1],2
Ac-PPPLPQKKIVSRAA[pS]SPDGF-NH2 [PEAK2^tandem-pS826 phosphopeptide (residues 812-831)],binding result,human 14-3-3ε,binds
B2,KD after pre-saturating the peptide with 14-3-3ɣ,[2],700 nM
B3,Kd,[3],600 nM
Ac-PPPLPKKMIIRAN[pT]EPISKD-NH2 [PEAK1^tandem-pT1165 phosphopeptide (residues 1152-1171)],binding result,human 14-3-3ε,binds
B4,stoichiometry N,SEC [4],2
Ac-PLPPPLPKKILTR-NH2 [PEAK3 54-66 proline-rich motif peptide],binding result,[3],binds
B5,stoichiometry N,SEC [4],2
B6,stoichiometry N,SEC-MALS,2
Ac-PLPPPLPKKILTRTQ[pS]LPTRR-NH2 [PEAK3^tandem-pS69 phosphopeptide (residues 54-74)],binding result,human 14-3-3ε,binds
B7,stoichiometry N,SEC [1],2
Ac-QPPPLPQKKIVSR-NH2 [PEAK2 809-821 proline-rich motif peptide],binding result,[3],binds
Ac-FSPPPPPPKSRHL-NH2 [PEAK2 709-721 proline-rich motif peptide],Kd,[3],13000 nM
Ac-PTPPPLPKKMIIR-NH2 [PEAK1 1150-1162 proline-rich motif peptide],binding result,[3],binds
